Publication doi:10.1101/2021.08.05.455261
Like-named read-outs stand apart in the source and are kept apart here.

Legend:
Test in all cases: SEC
[1] = biological target: C-terminal domain homolog (CTDH) from Anabaena variabilis (Anabaena variabilis)
[2] = biological target: C-terminal domain homolog (CTDH) from Anabaena variabilis (Anabaena variabilis); remark: listed apart in the source
[3] = biological target: C-terminal domain homolog (CTDH) from Anabaena variabilis (Anabaena variabilis); remark: listed apart in the source
[4] = biological target: C-terminal domain homolog (CTDH) from Anabaena variabilis (Anabaena variabilis); remark: listed apart in the source

Measured: stoichiometry N

C-terminal domain homolog (CTDH) from Anabaena variabilis (natural protein)
2: all assays above
